Measurements: PMC4751602

Legend:
hnRNP-Q1 RGG box peptide = target: T1, hnRNP-Q1 RGG box peptide (UniProt O60506-3 406-561); assay: fluorescence spectroscopy
T1 sequence: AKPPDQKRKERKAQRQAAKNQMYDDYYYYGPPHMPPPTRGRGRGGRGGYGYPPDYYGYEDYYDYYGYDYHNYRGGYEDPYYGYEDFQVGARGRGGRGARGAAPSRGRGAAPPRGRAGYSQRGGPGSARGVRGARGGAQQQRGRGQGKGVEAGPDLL

GST-hnRNP-Q1 = target: T2, GST-hnRNP-Q1 (UniProt O60506-3 1-562); assay: biotin pull-down, GST immunoblot
T2 sequence: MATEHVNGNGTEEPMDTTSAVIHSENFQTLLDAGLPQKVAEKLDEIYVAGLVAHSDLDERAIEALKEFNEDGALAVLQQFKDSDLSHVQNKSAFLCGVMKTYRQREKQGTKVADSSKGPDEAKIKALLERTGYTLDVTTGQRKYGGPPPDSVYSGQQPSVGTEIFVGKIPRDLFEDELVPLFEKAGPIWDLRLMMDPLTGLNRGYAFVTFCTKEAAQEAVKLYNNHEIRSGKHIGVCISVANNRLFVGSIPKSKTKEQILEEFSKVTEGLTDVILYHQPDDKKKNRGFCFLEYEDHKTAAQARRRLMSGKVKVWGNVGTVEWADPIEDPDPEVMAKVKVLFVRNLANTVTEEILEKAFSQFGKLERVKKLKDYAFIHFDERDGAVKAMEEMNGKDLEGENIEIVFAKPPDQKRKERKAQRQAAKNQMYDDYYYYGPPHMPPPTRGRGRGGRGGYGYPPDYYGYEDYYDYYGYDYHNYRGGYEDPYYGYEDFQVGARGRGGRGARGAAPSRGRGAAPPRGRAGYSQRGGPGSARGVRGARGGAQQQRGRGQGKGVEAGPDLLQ

B1: 2AP Gap-43 5'GQ RNA (structured_RNA)
RNA: GGGAGGGAGGGAGGGAGAGC
modifications: 2-aminopurine replaces A4
Kd (hnRNP-Q1 RGG box peptide): 131 ± 14 nM

B2: Gap-43 5'GQ (5' biotin) (structured_RNA)
RNA: GGGAGGGAGGGAGGGA
binding result (GST-hnRNP-Q1): binds
